Laboratory results reported in the supplement of paper PMC10065799, “High-throughput profiling of sequence recognition by tyrosine kinases and SH2 domains using bacterial peptide display” (eLife, 2023).

Columns and labels:
c-Src SH2 = assay: SH2 binding enrichment of the phosphorylated peptide, bacterial display (enrichment ratio); higher = better substrate or ligand; peptides without Tyr show the background
Grb2 SH2 = Grb2 SH2 (UniProt P62993); assay: as above
SHP2-C SH2 = assay: as above
Fer (mouse) = assay: phosphorylation enrichment, bacterial display (enrichment ratio); higher = better substrate or ligand; peptides without Tyr show the background
FGFR1 = FGFR1 (UniProt P11362); assay: as above
EPHB1 = EPHB1 (UniProt P54762); assay: as above
Fes = Fes (UniProt P07332); assay: as above
EPHB2 = EPHB2 (UniProt P29323); assay: as above
Jak2 = Jak2 (UniProt O60674); assay: as above
FGFR3 = FGFR3 (UniProt P22607); assay: as above
c-Abl (mouse) = assay: as above
AncSZ = assay: as above
c-Src = assay: as above
Hck = Hck (UniProt P08631); assay: as above
MERTK = MERTK (UniProt Q12866); assay: as above
Fyn = Fyn (UniProt P06241); assay: as above
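Wherever SH2 binding enrichment of the phosphorylated peptide, bacterial display is given: peptide library displayed on the E. coli surface as eCPX fusions, selected cells deep-sequenced, score is each peptide's frequency after selection divided by its frequency in the input.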
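Wherever phosphorylation enrichment, bacterial display is given: 11-residue human phosphosite peptides and single-mutation variants displayed on the E. coli surface, counted by deep sequencing, each peptide's frequency after selection divided by its frequency in the unselected input library; frequency after pTyr selection over input frequency; kinase dosed for 20-30% of maximal phosphorylation in three min.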

Chain of Hck (P08631 whole entry, looked up): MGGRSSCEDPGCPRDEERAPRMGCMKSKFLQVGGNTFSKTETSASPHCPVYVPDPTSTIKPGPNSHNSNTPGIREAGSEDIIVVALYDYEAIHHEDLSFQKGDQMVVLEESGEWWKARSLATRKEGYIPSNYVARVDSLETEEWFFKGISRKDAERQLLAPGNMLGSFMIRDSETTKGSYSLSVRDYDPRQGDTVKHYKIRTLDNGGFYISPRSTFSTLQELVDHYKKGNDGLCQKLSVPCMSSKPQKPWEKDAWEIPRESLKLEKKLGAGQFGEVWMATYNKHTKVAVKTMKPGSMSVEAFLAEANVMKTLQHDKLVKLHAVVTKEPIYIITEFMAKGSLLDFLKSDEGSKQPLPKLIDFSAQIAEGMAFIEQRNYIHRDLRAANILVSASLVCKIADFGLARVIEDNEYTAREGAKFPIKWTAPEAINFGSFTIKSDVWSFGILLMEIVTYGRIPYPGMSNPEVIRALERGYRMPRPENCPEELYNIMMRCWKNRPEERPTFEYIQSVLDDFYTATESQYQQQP
Chain of Fyn (P06241 whole entry, looked up, the tested form may be a part): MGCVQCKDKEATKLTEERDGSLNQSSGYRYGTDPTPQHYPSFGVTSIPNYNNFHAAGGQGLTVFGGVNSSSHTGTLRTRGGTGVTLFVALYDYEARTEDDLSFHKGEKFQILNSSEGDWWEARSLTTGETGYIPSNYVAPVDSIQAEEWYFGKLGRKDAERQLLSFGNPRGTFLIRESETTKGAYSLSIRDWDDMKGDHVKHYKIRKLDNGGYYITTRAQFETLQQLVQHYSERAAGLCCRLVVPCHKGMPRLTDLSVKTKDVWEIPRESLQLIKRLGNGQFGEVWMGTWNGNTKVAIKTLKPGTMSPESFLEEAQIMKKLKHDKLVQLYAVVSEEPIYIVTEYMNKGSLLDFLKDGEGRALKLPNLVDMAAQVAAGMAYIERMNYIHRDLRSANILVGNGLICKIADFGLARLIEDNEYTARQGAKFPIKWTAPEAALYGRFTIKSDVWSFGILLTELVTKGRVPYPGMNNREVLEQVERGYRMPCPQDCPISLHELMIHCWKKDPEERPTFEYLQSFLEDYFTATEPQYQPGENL
Chain of Jak2 (O60674 whole entry, looked up): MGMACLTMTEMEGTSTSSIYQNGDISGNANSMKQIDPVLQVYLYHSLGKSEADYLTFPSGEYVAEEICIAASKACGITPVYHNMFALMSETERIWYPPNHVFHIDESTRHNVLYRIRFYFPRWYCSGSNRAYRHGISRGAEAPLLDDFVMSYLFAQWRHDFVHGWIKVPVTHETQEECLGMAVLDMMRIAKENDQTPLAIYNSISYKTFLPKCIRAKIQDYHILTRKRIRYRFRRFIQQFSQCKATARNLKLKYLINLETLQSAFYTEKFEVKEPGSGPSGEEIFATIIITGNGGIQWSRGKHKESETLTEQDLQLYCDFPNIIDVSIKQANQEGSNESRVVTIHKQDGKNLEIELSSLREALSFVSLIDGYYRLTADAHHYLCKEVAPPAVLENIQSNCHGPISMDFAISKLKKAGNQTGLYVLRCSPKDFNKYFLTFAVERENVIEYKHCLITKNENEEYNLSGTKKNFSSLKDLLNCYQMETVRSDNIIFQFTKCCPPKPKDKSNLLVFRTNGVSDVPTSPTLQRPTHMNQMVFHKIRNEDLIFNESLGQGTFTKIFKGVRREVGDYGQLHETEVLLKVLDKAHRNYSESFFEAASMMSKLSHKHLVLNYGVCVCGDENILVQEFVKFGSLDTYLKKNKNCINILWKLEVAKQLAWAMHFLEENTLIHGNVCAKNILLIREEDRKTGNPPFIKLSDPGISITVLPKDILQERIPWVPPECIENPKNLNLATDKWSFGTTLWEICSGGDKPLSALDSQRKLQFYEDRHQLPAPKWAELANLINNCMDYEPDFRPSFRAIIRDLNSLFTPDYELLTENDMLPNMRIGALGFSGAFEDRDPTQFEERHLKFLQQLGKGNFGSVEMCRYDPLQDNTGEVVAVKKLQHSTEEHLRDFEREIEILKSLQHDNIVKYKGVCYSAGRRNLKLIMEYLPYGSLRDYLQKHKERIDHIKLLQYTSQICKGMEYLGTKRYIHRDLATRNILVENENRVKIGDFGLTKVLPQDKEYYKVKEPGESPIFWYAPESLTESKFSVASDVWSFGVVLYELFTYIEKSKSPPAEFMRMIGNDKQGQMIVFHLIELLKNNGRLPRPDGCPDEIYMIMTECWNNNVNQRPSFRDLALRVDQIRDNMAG
Chain of FGFR1 (P11362 whole entry, looked up): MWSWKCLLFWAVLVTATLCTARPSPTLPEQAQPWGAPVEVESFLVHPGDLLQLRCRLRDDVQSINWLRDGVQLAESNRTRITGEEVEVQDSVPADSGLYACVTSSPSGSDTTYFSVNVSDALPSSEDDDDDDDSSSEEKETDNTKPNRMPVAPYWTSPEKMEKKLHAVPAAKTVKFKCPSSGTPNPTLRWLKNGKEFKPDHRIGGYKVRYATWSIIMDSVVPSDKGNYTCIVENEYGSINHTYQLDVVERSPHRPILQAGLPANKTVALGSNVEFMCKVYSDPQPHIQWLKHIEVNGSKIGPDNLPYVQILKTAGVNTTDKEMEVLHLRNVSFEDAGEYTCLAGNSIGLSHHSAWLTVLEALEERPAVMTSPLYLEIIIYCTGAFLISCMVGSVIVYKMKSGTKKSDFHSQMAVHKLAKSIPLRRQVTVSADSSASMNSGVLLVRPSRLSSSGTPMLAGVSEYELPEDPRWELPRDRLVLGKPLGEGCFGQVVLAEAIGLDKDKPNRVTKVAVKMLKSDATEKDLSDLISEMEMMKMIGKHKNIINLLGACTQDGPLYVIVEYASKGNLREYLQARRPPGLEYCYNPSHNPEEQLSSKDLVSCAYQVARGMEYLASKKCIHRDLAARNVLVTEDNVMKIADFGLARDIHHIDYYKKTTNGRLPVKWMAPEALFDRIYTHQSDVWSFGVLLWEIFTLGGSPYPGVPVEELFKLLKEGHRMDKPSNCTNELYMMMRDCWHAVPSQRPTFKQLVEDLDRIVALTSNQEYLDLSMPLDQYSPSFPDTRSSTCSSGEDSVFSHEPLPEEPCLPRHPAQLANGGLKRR
Chain of EPHB1 (P54762 whole entry, looked up): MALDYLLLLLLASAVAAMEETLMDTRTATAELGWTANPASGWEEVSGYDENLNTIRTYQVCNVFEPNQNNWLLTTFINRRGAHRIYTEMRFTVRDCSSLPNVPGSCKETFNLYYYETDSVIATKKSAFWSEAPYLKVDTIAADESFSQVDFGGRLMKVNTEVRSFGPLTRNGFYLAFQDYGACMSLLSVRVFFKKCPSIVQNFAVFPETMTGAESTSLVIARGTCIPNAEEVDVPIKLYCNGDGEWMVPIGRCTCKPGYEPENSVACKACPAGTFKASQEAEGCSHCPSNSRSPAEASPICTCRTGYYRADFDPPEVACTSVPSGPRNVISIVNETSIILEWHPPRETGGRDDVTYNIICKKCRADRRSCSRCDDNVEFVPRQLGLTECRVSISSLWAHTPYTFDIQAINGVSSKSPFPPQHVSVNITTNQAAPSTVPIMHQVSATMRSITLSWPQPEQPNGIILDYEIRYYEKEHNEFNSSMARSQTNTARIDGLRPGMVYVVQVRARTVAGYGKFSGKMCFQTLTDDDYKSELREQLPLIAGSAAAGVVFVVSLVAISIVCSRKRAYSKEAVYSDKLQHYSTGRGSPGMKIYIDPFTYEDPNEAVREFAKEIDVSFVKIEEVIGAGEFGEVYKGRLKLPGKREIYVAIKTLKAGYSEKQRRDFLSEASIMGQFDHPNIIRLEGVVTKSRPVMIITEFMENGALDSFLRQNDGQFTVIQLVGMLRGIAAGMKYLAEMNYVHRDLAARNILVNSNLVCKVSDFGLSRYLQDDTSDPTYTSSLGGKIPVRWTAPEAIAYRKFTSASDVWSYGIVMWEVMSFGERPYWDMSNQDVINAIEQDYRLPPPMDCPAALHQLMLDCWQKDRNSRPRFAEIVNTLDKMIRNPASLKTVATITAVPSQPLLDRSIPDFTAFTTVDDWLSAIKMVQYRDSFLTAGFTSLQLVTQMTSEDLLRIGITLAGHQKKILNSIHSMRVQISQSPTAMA
Chain of MERTK (Q12866 whole entry, looked up): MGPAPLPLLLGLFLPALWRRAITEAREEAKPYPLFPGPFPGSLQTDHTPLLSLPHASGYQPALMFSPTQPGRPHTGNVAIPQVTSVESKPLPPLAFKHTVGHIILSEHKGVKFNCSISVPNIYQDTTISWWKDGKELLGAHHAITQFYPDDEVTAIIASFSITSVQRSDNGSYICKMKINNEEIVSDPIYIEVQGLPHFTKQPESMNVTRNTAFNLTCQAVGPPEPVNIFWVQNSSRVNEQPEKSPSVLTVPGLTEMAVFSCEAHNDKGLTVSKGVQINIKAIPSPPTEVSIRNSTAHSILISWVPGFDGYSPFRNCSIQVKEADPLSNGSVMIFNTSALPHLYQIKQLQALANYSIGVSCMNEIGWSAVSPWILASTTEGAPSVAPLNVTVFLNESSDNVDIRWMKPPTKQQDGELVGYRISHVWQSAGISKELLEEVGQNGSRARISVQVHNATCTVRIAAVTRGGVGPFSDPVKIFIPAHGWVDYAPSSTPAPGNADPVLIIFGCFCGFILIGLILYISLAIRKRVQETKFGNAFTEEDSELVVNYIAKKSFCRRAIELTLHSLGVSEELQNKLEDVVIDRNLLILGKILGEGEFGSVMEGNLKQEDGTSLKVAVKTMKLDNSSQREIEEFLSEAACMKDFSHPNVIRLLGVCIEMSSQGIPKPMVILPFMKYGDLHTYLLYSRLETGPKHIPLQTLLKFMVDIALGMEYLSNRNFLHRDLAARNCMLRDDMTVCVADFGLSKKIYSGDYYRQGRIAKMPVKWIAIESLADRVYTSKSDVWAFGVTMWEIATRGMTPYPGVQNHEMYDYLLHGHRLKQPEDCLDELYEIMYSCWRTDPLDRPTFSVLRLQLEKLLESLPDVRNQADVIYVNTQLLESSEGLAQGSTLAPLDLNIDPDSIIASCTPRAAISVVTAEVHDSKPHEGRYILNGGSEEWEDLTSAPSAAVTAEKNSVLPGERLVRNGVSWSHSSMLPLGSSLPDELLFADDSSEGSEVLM

## STEAIYWRYSK [SH3PXD2B_Y42_R43W]
c-Src SH2
  SH2 binding enrichment: 0.355
Grb2 SH2
  SH2 binding enrichment: 0.752
SHP2-C SH2
  SH2 binding enrichment: 0.551
Fer (mouse)
  phosphorylation enrichment: 0.502
FGFR1
  phosphorylation enrichment: 1.54
EPHB1
  phosphorylation enrichment: 1.44
Fes
  phosphorylation enrichment: 1.28
EPHB2
  phosphorylation enrichment: 1.39
Jak2
  phosphorylation enrichment: 1.26
FGFR3
  phosphorylation enrichment: 1.53
c-Abl (mouse)
  phosphorylation enrichment: 8.71
AncSZ
  phosphorylation enrichment: 1.33
c-Src
  phosphorylation enrichment: 3.47
Hck
  phosphorylation enrichment: 3.66
MERTK
  phosphorylation enrichment: 1.34
Fyn
  phosphorylation enrichment: 4.84

## EDASEYFENFI [PARP4_Y214_F215Y_YF]
c-Src SH2
  SH2 binding enrichment: 0.436
Grb2 SH2
  SH2 binding enrichment: 0.812
SHP2-C SH2
  SH2 binding enrichment: 0.544
Fer (mouse)
  phosphorylation enrichment: 0.598
FGFR1
  phosphorylation enrichment: 1.48
EPHB1
  phosphorylation enrichment: 0.798
Fes
  phosphorylation enrichment: 1.47
EPHB2
  phosphorylation enrichment: 0.806
Jak2
  phosphorylation enrichment: 1.39
FGFR3
  phosphorylation enrichment: 1.58
c-Abl (mouse)
  phosphorylation enrichment: 1.07
AncSZ
  phosphorylation enrichment: 2.37
c-Src
  phosphorylation enrichment: 0.618
Hck
  phosphorylation enrichment: 0.624
MERTK
  phosphorylation enrichment: 0.58
Fyn
  phosphorylation enrichment: 0.613

## ENAGFYFQVSA
c-Src SH2
  SH2 binding enrichment: 0.537
Grb2 SH2
  SH2 binding enrichment: 0.629
SHP2-C SH2
  SH2 binding enrichment: 0.658
Fer (mouse)
  phosphorylation enrichment: 0.474
FGFR1
  phosphorylation enrichment: 0.416
EPHB1
  phosphorylation enrichment: 0.483
Fes
  phosphorylation enrichment: 1.15
EPHB2
  phosphorylation enrichment: 0.493
Jak2
  phosphorylation enrichment: 1.3
FGFR3
  phosphorylation enrichment: 0.721
c-Abl (mouse)
  phosphorylation enrichment: 0.797
AncSZ
  phosphorylation enrichment: 1.08
c-Src
  phosphorylation enrichment: 0.347
Hck
  phosphorylation enrichment: 0.304
MERTK
  phosphorylation enrichment: 0.333
Fyn
  phosphorylation enrichment: 0.329

## FETNVYVDKNL [PTCHD3_Y688_K685T]
c-Src SH2
  SH2 binding enrichment: 0.693
Grb2 SH2
  SH2 binding enrichment: 0.968
SHP2-C SH2
  SH2 binding enrichment: 0.656
Fer (mouse)
  phosphorylation enrichment: 0.482
FGFR1
  phosphorylation enrichment: 0.436
EPHB1
  phosphorylation enrichment: 0.546
Fes
  phosphorylation enrichment: 0.938
EPHB2
  phosphorylation enrichment: 0.539
Jak2
  phosphorylation enrichment: 0.53
FGFR3
  phosphorylation enrichment: 0.623
c-Abl (mouse)
  phosphorylation enrichment: 1.01
AncSZ
  phosphorylation enrichment: 0.996
c-Src
  phosphorylation enrichment: 0.36
Hck
  phosphorylation enrichment: 0.578
MERTK
  phosphorylation enrichment: 0.411
Fyn
  phosphorylation enrichment: 0.54

## IKETHYMVDKC
c-Src SH2
  SH2 binding enrichment: 0.525
Grb2 SH2
  SH2 binding enrichment: 0.684
SHP2-C SH2
  SH2 binding enrichment: 0.68
Fer (mouse)
  phosphorylation enrichment: 0.507
FGFR1
  phosphorylation enrichment: 0.489
EPHB1
  phosphorylation enrichment: 0.447
Fes
  phosphorylation enrichment: 0.944
EPHB2
  phosphorylation enrichment: 0.531
Jak2
  phosphorylation enrichment: 0.804
FGFR3
  phosphorylation enrichment: 0.543
c-Abl (mouse)
  phosphorylation enrichment: 0.652
AncSZ
  phosphorylation enrichment: 0.8
c-Src
  phosphorylation enrichment: 0.403
Hck
  phosphorylation enrichment: 0.448
MERTK
  phosphorylation enrichment: 0.437
Fyn
  phosphorylation enrichment: 0.46

## IRTIDYRFTVS [IDS_Y497_W502S_YF]
c-Src SH2
  SH2 binding enrichment: 0.813
Grb2 SH2
  SH2 binding enrichment: 1.18
SHP2-C SH2
  SH2 binding enrichment: 1.18
Fer (mouse)
  phosphorylation enrichment: 0.596
FGFR1
  phosphorylation enrichment: 0.483
EPHB1
  phosphorylation enrichment: 0.496
Fes
  phosphorylation enrichment: 1.05
EPHB2
  phosphorylation enrichment: 0.547
Jak2
  phosphorylation enrichment: 0.989
FGFR3
  phosphorylation enrichment: 0.683
c-Abl (mouse)
  phosphorylation enrichment: 0.989
AncSZ
  phosphorylation enrichment: 0.907
c-Src
  phosphorylation enrichment: 0.458
Hck
  phosphorylation enrichment: 0.444
MERTK
  phosphorylation enrichment: 0.441
Fyn
  phosphorylation enrichment: 0.424

## LERYIYNREEL [HLA-DPB1_Y59_F64L]
c-Src SH2
  SH2 binding enrichment: 0.852
Grb2 SH2
  SH2 binding enrichment: 0.914
SHP2-C SH2
  SH2 binding enrichment: 0.709
Fer (mouse)
  phosphorylation enrichment: 0.444
FGFR1
  phosphorylation enrichment: 0.41
EPHB1
  phosphorylation enrichment: 0.653
Fes
  phosphorylation enrichment: 0.944
EPHB2
  phosphorylation enrichment: 0.407
Jak2
  phosphorylation enrichment: 0.731
FGFR3
  phosphorylation enrichment: 0.58
c-Abl (mouse)
  phosphorylation enrichment: 0.777
AncSZ
  phosphorylation enrichment: 0.713
c-Src
  phosphorylation enrichment: 1.93
Hck
  phosphorylation enrichment: 1.55
MERTK
  phosphorylation enrichment: 0.371
Fyn
  phosphorylation enrichment: 0.987

## PSTYRYERGSR [INPPL1_Y663_P659S]
c-Src SH2
  SH2 binding enrichment: 0.495
Grb2 SH2
  SH2 binding enrichment: 0.814
SHP2-C SH2
  SH2 binding enrichment: 0.492
Fer (mouse)
  phosphorylation enrichment: 0.474
FGFR1
  phosphorylation enrichment: 0.641
EPHB1
  phosphorylation enrichment: 0.663
Fes
  phosphorylation enrichment: 0.59
EPHB2
  phosphorylation enrichment: 0.511
Jak2
  phosphorylation enrichment: 0.475
FGFR3
  phosphorylation enrichment: 0.588
c-Abl (mouse)
  phosphorylation enrichment: 0.446
AncSZ
  phosphorylation enrichment: 0.718
c-Src
  phosphorylation enrichment: 0.546
Hck
  phosphorylation enrichment: 0.661
MERTK
  phosphorylation enrichment: 0.561
Fyn
  phosphorylation enrichment: 0.721

## IDPFTYTPFGS [CYP3A4_Y432_I431T_YF]
c-Src SH2
  SH2 binding enrichment: 0.597
Grb2 SH2
  SH2 binding enrichment: 0.746
SHP2-C SH2
  SH2 binding enrichment: 0.863
Fer (mouse)
  phosphorylation enrichment: 0.587
FGFR1
  phosphorylation enrichment: 0.486
EPHB1
  phosphorylation enrichment: 0.431
Fes
  phosphorylation enrichment: 0.851
EPHB2
  phosphorylation enrichment: 0.705
Jak2
  phosphorylation enrichment: 0.755
FGFR3
  phosphorylation enrichment: 0.523
c-Abl (mouse)
  phosphorylation enrichment: 0.581
AncSZ
  phosphorylation enrichment: 0.724
c-Src
  phosphorylation enrichment: 2.88
Hck
  phosphorylation enrichment: 1.18
MERTK
  phosphorylation enrichment: 0.561
Fyn
  phosphorylation enrichment: 0.91

## EAKENYGKTLK [CHL1_Y291_T287A]
c-Src SH2
  SH2 binding enrichment: 0.432
Grb2 SH2
  SH2 binding enrichment: 0.754
SHP2-C SH2
  SH2 binding enrichment: 0.503
Fer (mouse)
  phosphorylation enrichment: 0.305
FGFR1
  phosphorylation enrichment: 0.456
EPHB1
  phosphorylation enrichment: 0.348
Fes
  phosphorylation enrichment: 0.732
EPHB2
  phosphorylation enrichment: 0.314
Jak2
  phosphorylation enrichment: 0.52
FGFR3
  phosphorylation enrichment: 0.441
c-Abl (mouse)
  phosphorylation enrichment: 0.495
AncSZ
  phosphorylation enrichment: 0.655
c-Src
  phosphorylation enrichment: 0.424
Hck
  phosphorylation enrichment: 0.328
MERTK
  phosphorylation enrichment: 0.327
Fyn
  phosphorylation enrichment: 0.338

## EEVKAYLDFRE [CHAC2_Y78]
c-Src SH2
  SH2 binding enrichment: 0.33
Grb2 SH2
  SH2 binding enrichment: 0.651
SHP2-C SH2
  SH2 binding enrichment: 0.556
Fer (mouse)
  phosphorylation enrichment: 0.651
FGFR1
  phosphorylation enrichment: 0.584
EPHB1
  phosphorylation enrichment: 0.652
Fes
  phosphorylation enrichment: 1.44
EPHB2
  phosphorylation enrichment: 0.765
Jak2
  phosphorylation enrichment: 1.35
FGFR3
  phosphorylation enrichment: 0.865
c-Abl (mouse)
  phosphorylation enrichment: 0.867
AncSZ
  phosphorylation enrichment: 1.2
c-Src
  phosphorylation enrichment: 0.59
Hck
  phosphorylation enrichment: 0.601
MERTK
  phosphorylation enrichment: 0.524
Fyn
  phosphorylation enrichment: 0.605

## LARDMYDKEFF [MET_Y1230_YF]
c-Src SH2
  SH2 binding enrichment: 0.506
Grb2 SH2
  SH2 binding enrichment: 0.93
SHP2-C SH2
  SH2 binding enrichment: 0.643
Fer (mouse)
  phosphorylation enrichment: 0.464
FGFR1
  phosphorylation enrichment: 0.517
EPHB1
  phosphorylation enrichment: 0.515
Fes
  phosphorylation enrichment: 0.945
EPHB2
  phosphorylation enrichment: 0.564
Jak2
  phosphorylation enrichment: 0.702
FGFR3
  phosphorylation enrichment: 0.596
c-Abl (mouse)
  phosphorylation enrichment: 0.519
AncSZ
  phosphorylation enrichment: 0.685
c-Src
  phosphorylation enrichment: 0.382
Hck
  phosphorylation enrichment: 0.539
MERTK
  phosphorylation enrichment: 0.396
Fyn
  phosphorylation enrichment: 0.507

## GNHVSYFQSDG [CACNA1C_Y1757_YF]
c-Src SH2
  SH2 binding enrichment: 0.618
Grb2 SH2
  SH2 binding enrichment: 0.84
SHP2-C SH2
  SH2 binding enrichment: 0.706
Fer (mouse)
  phosphorylation enrichment: 0.369
FGFR1
  phosphorylation enrichment: 0.495
EPHB1
  phosphorylation enrichment: 0.373
Fes
  phosphorylation enrichment: 0.791
EPHB2
  phosphorylation enrichment: 0.427
Jak2
  phosphorylation enrichment: 0.636
FGFR3
  phosphorylation enrichment: 0.488
c-Abl (mouse)
  phosphorylation enrichment: 0.517
AncSZ
  phosphorylation enrichment: 0.656
c-Src
  phosphorylation enrichment: 0.42
Hck
  phosphorylation enrichment: 0.445
MERTK
  phosphorylation enrichment: 0.443
Fyn
  phosphorylation enrichment: 0.458

## QVQQIYSDSDL [MIB1_Y376_R371Q]
c-Src SH2
  SH2 binding enrichment: 0.573
Grb2 SH2
  SH2 binding enrichment: 0.965
SHP2-C SH2
  SH2 binding enrichment: 0.836
Fer (mouse)
  phosphorylation enrichment: 7.33
FGFR1
  phosphorylation enrichment: 0.85
EPHB1
  phosphorylation enrichment: 1.49
Fes
  phosphorylation enrichment: 1.88
EPHB2
  phosphorylation enrichment: 2.35
Jak2
  phosphorylation enrichment: 1.05
FGFR3
  phosphorylation enrichment: 0.932
c-Abl (mouse)
  phosphorylation enrichment: 1.09
AncSZ
  phosphorylation enrichment: 1.3
c-Src
  phosphorylation enrichment: 5.36
Hck
  phosphorylation enrichment: 3.84
MERTK
  phosphorylation enrichment: 4.04
Fyn
  phosphorylation enrichment: 6.18
